Patent US7919464B2, “Use of a peptide that interacts with αvβ3 integrin of endothelial cell” (Kyungpook National University Industry-Academic Cooperation …, priority 2003, dated 2011)

What was measured:
HUVECs = HUVECs migration assay in transwell plate coated with βig-h3; assay type: cell-based, human; conditions: 10 μg/ml βig-h3 His-β-b coated; 6-8 hours; data not shown
Method: Firstly, to examine whether βig-h3 is involved in the migration of endothelial cells, the present inventors performed cell migration assay. The cell migration assay was performed in a transwell plate (8 μm pore size, Costar, Cambridge, Mass.). The undersurface of the membrane was coated with the recombinant βig-h3 His-β-b protein (10 μg/ml) prepared in Example 1 at 4° C., and then, blocked for 1 hour at room temperature with PBS buffer containing 2% BSA. Meanwhile, HUVECs were added with an anti-αvβ3 antibody (LM609) or an anti-αvβ5 antibody (P1F6) and preincubated at 37° C. for 30 minutes. A control was added with mouse IgG. Then, the HUVECs preincubated with the antibody were suspended in medium at a density of 3×10^5 cells/ml, and 0.1 ml of the cell suspension was added to the upper compartment of the filter. The cells were allowed to migrate at 37° C. for 6-8 hours.
Migration was terminated by removing the cells from the upper compartment of the filter with a cotton swab. The filters were fixed with 8% glutaraldehyde and stained with crystal violet. The extent of cell migration was determined by light microscope, and within each well, cell counting was done in nine randomly selected fields HPF (Microscopic high power fields, ×200).
Then, the present inventors examined whether the migration of endothelial cells is inhibited by the YH18 synthetic peptide. […]

HUVECs cell membrane = assay: Binding of biotin-βig-h3 to HUVECs surface (Western immunoblotting); parameters: species or system human; conditions: biotin-βig-h3, 4° C. 5 hours
Method: To confirm that HUVECs adhesion that is mediated by βig-h3 depends on αvβ3 integrin, the present inventors tested the binding affinity of βig-h3 in the presence of an antibody that specifically blocks the function of the integrin. This binding assay was performed according to the method described by Maile, L. A., et al., J. Biol. Chem., […].
First, HUVECs were suspended in medium at a density of 1×10^5 cells/ml. 1 ml of the cell suspension was preincubated with anti-αvβ3 antibody (LM609) or anti-αvβ5 antibody (P1F6) at 37° C. for 30 minutes. Thereafter, the preincubated cells were incubated with biotinylated βig-h3 (hereinafter, referred to as “biotin-βig-h3”) in a serum-free medium containing 0.1% BSA at 4° C. for 5 hours. The biotin-βig-h3 was added at concentrations of 1×10^−10, 1×10^−9 and 5×10^−9 μm, respectively. Then, the cells were washed three times with PBS buffer (pH 7.4), and dissolved at 4° C. in ice-cold buffer A (10 mM Tris-Cl, pH 7.4, 150 mM NaCl, 1% Nonidet P-40, 1% sodium deoxycholate, 0.5% SDS, 0.02% sodium azide, 1 mM EDTA, 1 mM phenylmethylsulfonyl fluoride). The cell lysates were clarified by centrifugation at 13,000 rpm for 30 minutes at 4° C. Equal amounts of protein were then separated by SDS-PAGE, 8% gel. The amount of biotin-βig-h3 was determined by Western immuno-blotting. […]

B1: βig-h3: recombinant human βig-h3 protein that expresses all of four fas-1 domains; biotinylated form used in binding assay (protein)
chain: YQRKICGKSTVISYECCPGYEKVPGEKGCPAALPLSNLYETLGVVGSTTTQLYTDRTEKLRPEMEGPGSFTIFAPSNEAWASLPAEVLDSLVSNVNIELLNALRYHMVGRRVLTDELKHGMTLTSMYQNSNIQIHHYPNGIVTVNCARLLKADHHATNGVVHLIDKVISTITNNIQQIIEIEDTFETLRAAVAASGLNTMLEGNGQYTLLAPTNEAFEKIPSETLNRILGDPEALRDLLNNHILKSAMCAEAIVAGLSVETLEGTTLEVGCSGDMLTINGKAIISNKDILATNGVIHYIDELLIPDSAKTLFELAAESDVSTAIDLFRQAGLGNHLSGSERLTLLAPLNSVFKDGTPPIDAHTRNLLRNHIIKDQLASKYLYHGQTLETLGGKKLRVFVYRNSLCIENSCIAAHDKRGRYGTLFTMDRVLTPPMGTVMDVLKGDNRFSMLVAAIQSAGLTETLNREGVYTVFAPTNEAFRALPPRERSRLLGDAKELANILKYHIGDEILVSGGIGALVRLKSLQGDKLEVSLKNNVVSVNKEPVAEPDIMATNGVVHVITNVLQPPANRPQERGDELADSALEI
What does the source list for B1?
migration of HUVECs in transwells whose undersurface was coated with βig-h3 (HUVECs): enhanced; binding of βig-h3 to HUVECs surface (HUVECs cell membrane): bound to HUVECs surface in a dose-dependent manner
